Measurements taken from patent US20240294650A1 (Alector, published 2024).

T1: recombinant murine MerTK extracellular domain (mouse, UniProt Q60805 19-497)
T1 construct: also called Mouse MerTK; murine MerTK ECD; not shown: polyHis or TEVS/Thrombin/murine IgG2a-Fc tag
T1 sequence: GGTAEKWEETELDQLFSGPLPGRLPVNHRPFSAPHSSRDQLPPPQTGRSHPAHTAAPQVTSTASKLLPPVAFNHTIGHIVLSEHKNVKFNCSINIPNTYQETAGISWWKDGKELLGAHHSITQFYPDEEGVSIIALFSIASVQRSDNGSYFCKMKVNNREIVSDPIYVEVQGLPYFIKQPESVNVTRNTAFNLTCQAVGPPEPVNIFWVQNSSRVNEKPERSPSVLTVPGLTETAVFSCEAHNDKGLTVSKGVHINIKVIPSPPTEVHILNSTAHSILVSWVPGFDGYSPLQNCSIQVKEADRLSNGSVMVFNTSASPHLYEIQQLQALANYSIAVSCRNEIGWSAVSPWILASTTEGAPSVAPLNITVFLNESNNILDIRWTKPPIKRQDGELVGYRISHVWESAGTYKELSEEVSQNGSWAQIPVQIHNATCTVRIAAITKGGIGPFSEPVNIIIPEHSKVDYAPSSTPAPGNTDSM

T2: His tag-conjugated recombinant ProS (human, UniProt P07225 42-676, limits assumed)
T2 construct: bought; also called Protein S; ProS1 (R&D systems, Cat #9489-PS-100)
T2 sequence (looked up): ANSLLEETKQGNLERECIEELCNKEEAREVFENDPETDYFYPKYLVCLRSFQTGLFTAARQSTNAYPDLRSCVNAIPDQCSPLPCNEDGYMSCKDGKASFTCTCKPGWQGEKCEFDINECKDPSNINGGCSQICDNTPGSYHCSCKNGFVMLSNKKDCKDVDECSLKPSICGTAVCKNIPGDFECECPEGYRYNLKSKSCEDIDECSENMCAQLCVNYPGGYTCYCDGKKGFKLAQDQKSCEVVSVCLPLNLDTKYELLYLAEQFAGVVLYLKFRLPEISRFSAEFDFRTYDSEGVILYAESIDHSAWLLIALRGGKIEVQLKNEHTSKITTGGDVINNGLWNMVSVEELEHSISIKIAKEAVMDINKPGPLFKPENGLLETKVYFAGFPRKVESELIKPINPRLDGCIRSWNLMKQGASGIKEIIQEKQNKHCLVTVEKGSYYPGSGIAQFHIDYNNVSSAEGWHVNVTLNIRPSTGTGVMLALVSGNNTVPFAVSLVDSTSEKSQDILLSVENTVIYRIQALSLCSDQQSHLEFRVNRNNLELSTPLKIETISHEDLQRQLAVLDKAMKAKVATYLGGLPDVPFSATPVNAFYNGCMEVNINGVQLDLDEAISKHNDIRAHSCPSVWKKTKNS

T3: MerTK C-terminal ECD Half-and-half chimera (human)
T3 construct: tested as culture supernatant; also called MerTK C-term half-and-half chimera; MerTK C-terminal ECD (FN1-FN2-JM) + Axl N-terminal ECD (NT-Ig1-Ig2)
T3 chain: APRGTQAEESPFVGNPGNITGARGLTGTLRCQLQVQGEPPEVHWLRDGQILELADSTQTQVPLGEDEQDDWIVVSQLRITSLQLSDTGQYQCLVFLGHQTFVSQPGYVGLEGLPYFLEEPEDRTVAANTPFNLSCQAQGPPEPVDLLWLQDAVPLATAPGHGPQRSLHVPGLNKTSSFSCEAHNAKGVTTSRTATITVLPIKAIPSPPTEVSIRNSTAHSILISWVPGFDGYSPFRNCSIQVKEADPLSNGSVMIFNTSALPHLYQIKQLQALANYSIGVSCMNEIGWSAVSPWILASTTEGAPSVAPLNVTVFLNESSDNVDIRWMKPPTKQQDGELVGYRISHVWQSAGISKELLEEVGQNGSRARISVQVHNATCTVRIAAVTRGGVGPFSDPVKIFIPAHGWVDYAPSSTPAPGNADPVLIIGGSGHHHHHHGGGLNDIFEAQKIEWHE


Key:
[1] = molecular target: T1, recombinant murine MerTK extracellular …; experiment: SPR Carterra LSA
[2] = molecular target: T2, His tag-conjugated recombinant ProS; experiment: ELISA, captured Ab, ProS-His 10 ug/ml, no MerTK
[3] = molecular target: T3, MerTK C-terminal ECD Half-and-half …; experiment: SPR, construct supernatant over immobilised Ab
In short: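 Epitope domain mapping by SPR with antibody captured via amine coupling and construct supernatants as analyte (1:1 dilution, 0.5 mg/mL BSA in running buffer). Scoring relied on binding lost or gained across MerTK/Axl swaps.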

Row | Ratio of KD for Mouse vs Human MerTK [1] [ratio] | binding result [2] | binding result [3] | Binder
1 | 64.2 | binds |  | MTK-224 (antibody, human IgG1, V domains shown) VH: QVQLQQPGAELVKPGASVKVSCKASGYTFTSYWMHWVKQRPGQGLEWIGRIHPFDSDTNYNQKFKGKATLTVDKSSSTAYMQLSSLTSEDSAVYYCSIAGFAYWGQGTLVTVSA VL: DIVMTQSPATLSVTPGDRVSLSCRASQIISDYLNWYQQKSHESPRLLIKYASQSISGIPSRFSGSGSGSDFTLSINSVEPEDVGVYYCQNGHSFPLTFGAGTKLELK
2 |  | binds | no binding | MTK-231 (antibody, human IgG1, V domains shown) VH: DVQLQESGPGLVKPSQSLSLTCSVTGYSITSGYYWNWIRQFPGNKLEWMGYISYDGTYNYHPSLKNRISITRDTSKNQFFLTLNSVTTEDTATFYCTRGGGYWGQGTSVTVSS VL: DVVMTQTPLSLPVSLGDQASISCRSSQSLVHSDGNTYLHWYLQKPGQSPKLLIYKVSNRFSGVPDRFSGSGSGTDFTLKISRLEAEDLGIYFCSQTTHIPLTFGSGTKLEIK
3 | 0.08 | binds | no binding | MTK-213 (antibody, human IgG1, V domains shown) VH: QVQLQQPGAELVKPGASVKMSCKASGYTFTSYWITWVKQRPGQGHEWIGEIYPGIGSTNYNEKFKSKATLTVDTSSRTAYMQLSSLTSEDSAVYFCARGAYTKYYFDYWGQGTTLTVSS VL: DIVMTQSHKFMSTSVGDRVSITCKASQDVGDAVAWYQQKPGQTPKLLIYWASTRHTGVPDRFTGSGSGTDFTLTISNVQSEDLADYFCQQYSSYLMYTFGGGTKLEIK
